Like-named read-outs stand apart in the source and are kept apart here.
Legend:
[1] = target: Cul5(N), human Cullin5 residues 2-384 (V341R, L345D) after removal of GST (human) (UniProt Q93034); assay: ITC, 30 C
[2] = target: Cul5(N), human Cullin5 residues 2-384 (V341R, L345D) after removal of GST (human) (UniProt Q93034)
[3] = target: Cul5(N), human Cullin5 residues 2-384 (V341R, L345D) after removal of GST (human) (UniProt Q93034); assay: ITC; one set of sites model
[4] = target: Cul5(N), human Cullin5 residues 2-384 (V341R, L345D) after removal of GST (human) (UniProt Q93034); remark: listed apart in the source
[5] = target: Cul5(N), human Cullin5 residues 2-384 (V341R, L345D) after removal of GST (human) (UniProt Q93034); assay: ITC, one set of sites fit of one isotherm with the actual BCvifVF concentration

Chain of Cul5(N), human Cullin5 residues 2-384 (V341R, L345D) after removal of GST (human) (Q93034 other isoform, or with tags, fused parts or gaps V341R L345D V341R L345D): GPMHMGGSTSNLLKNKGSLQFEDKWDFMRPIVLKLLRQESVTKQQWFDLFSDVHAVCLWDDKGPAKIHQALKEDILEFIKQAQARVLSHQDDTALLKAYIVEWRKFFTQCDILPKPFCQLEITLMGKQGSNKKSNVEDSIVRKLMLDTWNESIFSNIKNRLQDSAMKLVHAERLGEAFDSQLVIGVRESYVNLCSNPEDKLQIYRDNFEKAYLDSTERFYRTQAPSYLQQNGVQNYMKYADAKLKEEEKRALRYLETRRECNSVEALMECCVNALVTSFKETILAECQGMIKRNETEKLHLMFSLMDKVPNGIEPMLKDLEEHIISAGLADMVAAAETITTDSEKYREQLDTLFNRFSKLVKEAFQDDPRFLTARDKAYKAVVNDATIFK

Substance | ΔH [1] | N [2] | ΔS [2] | n (ITC binding stoichiometry) [3] | n (ITC binding stoichiometry, one set of sites model) [4] | n (ITC binding stoichiometry, one set of sites model) [5]
BCvif95-192: EloB (1-118) / EloC (17-112) / Vif (95-192) (from UniProt P69723 95-192) | -5.24 kcal/mol | 1.01 | 11.1 |  |  | 
BCvifSS: EloB (1-118) / EloC (17-112) / vif (95-192) (A123S, L124S) (from UniProt P69723 95-192) | -7.28 kcal/mol |  |  | 1.01 |  | 
BCvifVF: EloB (1-118) / EloC (17-112) / vif (95-192) (A123V, L124F) (from UniProt P69723 95-192) |  |  |  | 0.43 | 0.901 | 0.451
